For data set [1], the target named is T1, IFF05588.
T1 chain: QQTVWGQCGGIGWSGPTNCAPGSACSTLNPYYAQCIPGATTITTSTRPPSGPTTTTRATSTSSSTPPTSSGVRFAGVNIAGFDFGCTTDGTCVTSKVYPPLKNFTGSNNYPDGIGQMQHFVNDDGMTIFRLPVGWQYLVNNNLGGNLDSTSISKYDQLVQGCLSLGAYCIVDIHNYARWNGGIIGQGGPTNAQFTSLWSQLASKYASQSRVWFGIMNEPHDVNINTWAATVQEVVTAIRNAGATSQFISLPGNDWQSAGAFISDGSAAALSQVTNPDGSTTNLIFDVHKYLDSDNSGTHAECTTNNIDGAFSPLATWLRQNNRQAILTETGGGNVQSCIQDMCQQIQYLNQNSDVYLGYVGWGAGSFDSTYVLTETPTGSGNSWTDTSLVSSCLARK

For data set [2], the target named is T2, IFF07399.
T2 chain: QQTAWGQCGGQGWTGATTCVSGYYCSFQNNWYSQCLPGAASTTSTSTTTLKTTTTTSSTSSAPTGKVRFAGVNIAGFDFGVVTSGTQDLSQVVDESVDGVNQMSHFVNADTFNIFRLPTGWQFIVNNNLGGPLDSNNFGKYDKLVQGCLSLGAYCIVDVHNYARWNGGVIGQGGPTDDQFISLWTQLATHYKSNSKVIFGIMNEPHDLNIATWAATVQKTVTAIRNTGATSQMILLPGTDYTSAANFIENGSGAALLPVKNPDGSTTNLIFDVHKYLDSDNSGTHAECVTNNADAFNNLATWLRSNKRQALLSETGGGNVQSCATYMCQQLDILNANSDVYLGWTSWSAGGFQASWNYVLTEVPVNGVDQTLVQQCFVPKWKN

B1: IFF21372 (protein)
chain: QNLGKPVLFTDGLSPHVDASFWAHLNPTQSTWDQWGWGWIPQSCFDAANSNNVSPYDFEVFNVHYTDCGTAWVFCRHHSASLSQIDMIDLFGRLPVHERQWIRHVVAVPGGGSAYELNADVVFQGPVGTPSVFQHEVGHAVDFYKNGFQSSGTSQFLNAIQQDSCVPDDYANSNNVEDYTQVGVLSLYEIVNPGGLDPIGANWRCLVNQKNVLDGFQRDNMIPGGVCDRRWADSTIVKMGPAVPRVKRGPVGPIPQPAGLPVPGPSKAGPDVYKNLVFNATEKRNAETRQAAWQKAAKGAEA
Take B1: in data set [1], the Relative late peak area (centered, scaled, averaged over 5, 10 and 15 min) worked out at 1.62; the Relative late peak area (centered, scaled, averaged over doses, 24 h; sample diluted 10-fold) is 1.18; the Relative late peak area (reverse phase chromatography, 24 h) was 0.6.

B2: IFF21370 (protein)
chain: DDTPPFKPVISPAFDFYGTLEDGLRANLAPTQSTWDQWGEGWIPDDCKWYAEYYGYAANEFEVFNVKYTDCDEAWIMCRHKQATVSQTGMIDLFGRLPLGMREYVKHVVMAPETKANTVASSYRGTIAFDQDYFSIYNLVHETGHCMDGTAALDVFPDGISSSSIWQDNYNQDSAVVRDYARSSWVENFAETGTVAVYDKVVPGGIGPIQPNWEQIYHQYATYNGYLSDIITPGAKDKCTQRRENSETVAMGASSRIMRSSPPDTSFKSDVKVMPAGANDEFFFEHSRDH
For the protein B2, in data set [1], the Relative late peak area (centered, scaled, averaged over 5, 10 and 15 min) was -1.05; the “modification of IFF05588 (reverse phase chromatography, 5 to 15 min)” value was “All samples containing proteins related to IFF05497 except seven (IFF21355, IFF21358, IFF21356, IFF21361, IFF21370, IFF21357 and IFF21353) are able to modify IFF05588 under these reaction conditions”.

B3: IFF21366 (protein)
chain: QNLNKPVLFSDGLSPHVDSVFFQHLTPTQSTWDKWGWGWIPQACLSVVQGTQFSPYDIEVYNVHYTDCASAVVMCRHNQAQMSIINMIDAFGRIPIHDRQWTQHILALPAGGCSAGTGGAVTTFYGPCYIPSVFVHELTHTLDAFVNDKTGSTGAVHVYSTTSSYLNSVNQDSCVPDGYANTSPQEDYAQTSVLALYEKVNPGGLDPIGPWRCLVNAKNNLDSIIGQELTPGGSCTHRWADSAIVCMGPAAGCTSSKRGFEGRRGLKPVGPKPNPANKKGDPLVLDLLPDLASVVNAKITDFSHLSSNHTAGIEATIRINAWNKAAGKETVPVPKA
In the case of B3, in data set [1], the Relative late peak area (centered, scaled, averaged over 5, 10 and 15 min) is 0.34; the Relative late peak area (centered, scaled, averaged over doses, 24 h; sample diluted 2-fold) was determined as 1.02. Besides, in data set [2], the “Gel mobility change (SDS-PAGE)” value is listed as “yes”.

B4: IFF21358 (protein)
chain: GNPDKPEVNPHIPYDRLENDLRNNLHPTQSTWDYWGAGWIPQGCKDLANTYHLNPADFTIFNVHYTDCSASWTFCRHKNAGASEIDMIDIFGRLPVRMRSYLRHLVATPGLNDGAAAWTWSSGDCVVESAPNLATLVHEVSHSLDWHALPQYQQPFSSSSIWQDNYNQDSATPTGYGRTNWMENFAETGMVGVYDKAVPGGIGNIEPNWNAIFHQYATYQGYLGDKIIAGGSCANRFDDTPPVAMSNSAKFKITSAKPETGIDFAGKNITQIIPSKEFEGLYIKG
In the case of B4, in data set [1], the Relative late peak area (centered, scaled, averaged over 5, 10 and 15 min) is -1.04; the Relative late peak area (centered, scaled, averaged over doses, 24 h; sample diluted 1-fold) is -1.46; the “modification of IFF05588 (reverse phase chromatography, 5 to 15 min)” value was “All samples containing proteins related to IFF05497 except seven (IFF21355, IFF21358, IFF21356, IFF21361, IFF21370, IFF21357 and IFF21353) are able to modify IFF05588 under these reaction conditions”. The “Gel mobility change (SDS-PAGE)” value in data set [2] is recorded as “yes”.

B5: IFF21344 (protein)
chain: KLDKPIIQPNFPGGGLASLGQGLLNNLSPTQSTSDNWGAGWIPADCKSLVQGAGLSPFDVTPFNIHYTDCSQTWTFCRHKDSPLSQTDIIDLFGRVPVRMRDFIRHYVFIPGATSAGSSGDNTLMVGNVDITVFLHEIGHSLDSHAFDPSYGVPFSTSNVWISNYNLDSAVTDSYAQTSQQENFAQETVVSVYDKVVPGGIGTIQPNWQAIFHQYATLQGYIGNTIIPGGTCVNRLTDSQPVTMGNSAKFRRGLGPKPTVSLSPDVKEIKPIPMSDSITMTTFDEFGKANGTYVIHL
Take B5: in data set [1], the Relative late peak area (centered, scaled, averaged over 5, 10 and 15 min) came out at 1.36; the Relative late peak area (centered, scaled, averaged over doses, 24 h; sample diluted 10-fold) stood at 0.79. Also, the “Gel mobility change (SDS-PAGE)” value in data set [2] is recorded as “yes”.

B6: IFF21345 (protein)
chain: KLDKPIIQPNFPGGGLASLGQGLLNNLSPTQSTSDNWGAGWIPADCKSLVQGAGLSPFDVTPFNIHYTDCSQTWTFCRHKDSPLSQTDIIDLFGRVPVRMRDFIRHYVFIPGATSAGSSGDNTLMVGNVDITVFLHEIGHSLDSHAFDPSYGAPFSNSNIWISNYNLDSAVTDSYAQTSQQENFAQETVVSVYDKVVPGGIGTIQPNWQAIFHQYATLQGYIGDTIIPGGTCVNRLTDSQPVTMGNSAKFRRGLGPKPTVSLSPDVKEIKPIPMSDSITMTTFDEFGKANGTYVIHL
For B6, in data set [1], the Relative late peak area (centered, scaled, averaged over 5, 10 and 15 min) is 1.82; the Relative late peak area (centered, scaled, averaged over doses, 24 h; sample diluted 10-fold) is 1.24.

B7: IFF21374 (protein)
chain: QRLNKPALTPNLDYLEQGNIDNLHPTHSTWDKWGPGWIPADCKSIAQNEGKNPDDFEIYNVHYDDCSDAWVFCRHKDSNVDLVTTIDIFGRLPVKMRSWVRHVITIPGDSWAYNSNGNIAFFGTTSSSMDVAIHETGHSLDLLGAYWGKTFSDSSTWLDNYNQDPNVPDEYAQTNQVENVAQNTVVGVYDKVVPGGFGSVQPNWHNIFHQYATLQWGAGDQIIPGGTCDRHLQNSETVPTGNSALAFNAVNRPDTSLKGNYSNIVTDFKEFSTRGNCRI
The protein B7 returned a Relative late peak area (reverse phase chromatography, 24 h) in data set [1] of 0.51. Besides, the “Gel mobility change (SDS-PAGE)” value in data set [2] is “yes”.

B8: IFF21376 (protein)
chain: QTLDKPALTPDLDYLEQGAIDNLAPTQSTNDQWGSGWIPSDCKDIANNEGKNPDDFEIYNVHYDDCDDAWVFCRHKDTPTDLITTIDIFGRLPVAMRSWVRHVLTIPGDNYAYNSNGNIAFFGTTSGIMDVAIHETGHSLDLLGAYGDQLSSSQDWLDNYNQDSNVPDNYAQTNQIENVEQNTVVSVYDKVVPGGFGSAQPNWNNIFHQYATLQGKAGDQIIPGGSCDRHLVNSETVSTSDSAAAAMVDAVDKPVTSFKGNYTKILKTHAKFNTKESCYFGN
As to B8, in data set [1], the Relative late peak area (centered, scaled, averaged over 5, 10 and 15 min) was -0.99; the Relative late peak area (centered, scaled, averaged over doses, 24 h; sample diluted 1-fold) was -1.61.

B9: IFF21347 (protein)
chain: KLDKPVIQPNFPGGGLASLGQGLLDNLKPTQSTSDVWGAGWIPADCKSLVQGAGLSPNDITPFNIHYTDCSQTWTFCRHKDSPLSQTDIIDLFGRVPVRMRDYIRHYVFIPGNKSAGSSGDNTLMVGDVDITVFLHEIGHSLDSHAFDPSYGVPFSTGNVWISNYNQDSAVTDDYAQSSQQENFAQETVVSVYDKNVPGGIGNIQPNWQAIFHQYATLEGYIGDTIIPGGTCVNRLTDSQPVTMSNSAKFRRNLGPKPTVSLSPDVKEIKAIPMADSIKMTSFDEHGKPNGTYVIQL
In the case of B9, in data set [1], the Relative late peak area (centered, scaled, averaged over 5, 10 and 15 min) was found to be 1.74; the Relative late peak area (centered, scaled, averaged over doses, 24 h; sample diluted 10-fold) was 1.14; the Relative late peak area (reverse phase chromatography, 24 h) came to 0.59.

B10: IFF21346 (protein)
chain: NLDKPVIQPNFPGGGLASLGQGLLDNLKPTQSTSDVWGAGWIPADCKSLVQGAGLSPNDITPFNIHYTDCSQTWTFCRHKDSPLSQTDIIDLFGRVPVRMRDYIRHYVFIPGNKSAGSSGDNTLMVGDVDITVFLHEIGHSLDSHAFDPSYGVPFSTGNVWISNYNQDSAVTDSYAQSSQQENFAQETVVSVYDKNVPGGIGNIQPNWQAIFHQYATLEGYIGDTIIPGGTCVNRLTDSQPVTMSNSAKFRRTLGPKPTVSLSPDVKEIKPIPMADSIKMTSFDEHGKPNGTYVINL
In data set [1], B10 registered a Relative late peak area (centered, scaled, averaged over 5, 10 and 15 min) of 0.52; a Relative late peak area (centered, scaled, averaged over doses, 24 h; sample diluted 2-fold) of 1.07.

B11: IFF21361 (protein)
chain: DLLRPEIDTVFADGLGPLDQPLVDNLPLTSYTLNQWAPGWIPADCKAMIEGQNMSATEMTVWSVAYADCVDPWVMCQHPSAELNLTAMIDLFGRLPVKMRSLVRHLAAIPGRPWAYNSGTTGRISVFAHEVGHSMDYHGYFNDTRGQFSLSSLWLDNFAKDSGVADYYANTDQGENHSQEVVVALFDANVPGGLGSVTGNWSAILHQYATIQGFVGDGGDTLTPGGACSHRHNNSAAVPMTTEDAAQGPPPDVELTGPVHVYAFKPMEPVANATVVKEDGVAAPMVVKVF
Consider B11, for which, in data set [1], the Relative late peak area (centered, scaled, averaged over 5, 10 and 15 min) is -1.05; the Relative late peak area (centered, scaled, averaged over doses, 24 h; sample diluted 1-fold) is -1.64; the “modification of IFF05588 (reverse phase chromatography, 5 to 15 min)” value is “All samples containing proteins related to IFF05497 except seven (IFF21355, IFF21358, IFF21356, IFF21361, IFF21370, IFF21357 and IFF21353) are able to modify IFF05588 under these reaction conditions”; the “modification of IFF05588 (reverse phase chromatography, 24 h, doses)” value is “All samples containing proteins related to IFF05497 except two (IFF21376 and IFF21361) are able to modify IFF05588 under these reaction conditions. Close comparison of the chromatograms for these two samples show differences between buffer and sample chromatograms indicative of activity in the sampl”.
